Biological target: GLP-1 R expressed in Rinm cells
Experiment: cell-based or functional assay

cAMP activity in Rinm cells, EC50: 0.4 nM
Substance: GLP-1 peptide (from UniProt P01275 98-128)
